# Substitutions are numbered along the chain they refer to.
# Assays:
# Experiment in all cases: EMSA
# [1] = target: T1, BfmR (Pseudomonas aeruginosa PAO1) (UniProt Q9HWS7)
# T1 sequence: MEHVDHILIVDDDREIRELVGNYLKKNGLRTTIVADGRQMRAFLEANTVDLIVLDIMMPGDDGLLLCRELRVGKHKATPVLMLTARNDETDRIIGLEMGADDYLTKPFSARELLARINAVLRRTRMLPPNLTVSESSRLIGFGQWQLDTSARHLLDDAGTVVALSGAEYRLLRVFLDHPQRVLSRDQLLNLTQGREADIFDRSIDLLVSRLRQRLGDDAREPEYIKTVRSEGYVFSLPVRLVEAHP
# [2] = target: T2, BfmR D205A D205A (Pseudomonas aeruginosa PAO1) (UniProt Q9HWS7)
# T2 sequence: T1 sequence with D205A
# [3] = target: T3, BfmR R185A R185A (Pseudomonas aeruginosa PAO1) (UniProt Q9HWS7)
# T3 sequence: T1 sequence with R185A
# [4] = target: T4, BfmR R202A R202A (Pseudomonas aeruginosa PAO1) (UniProt Q9HWS7)
# T4 sequence: T1 sequence with R202A
# [5] = target: T5, BfmR R210A R210A (Pseudomonas aeruginosa PAO1) (UniProt Q9HWS7)
# T5 sequence: T1 sequence with R210A
# [6] = target: T6, BfmR R212A R212A (Pseudomonas aeruginosa PAO1) (UniProt Q9HWS7)
# T6 sequence: T1 sequence with R212A
# [7] = target: T7, BfmR S209A S209A (Pseudomonas aeruginosa PAO1) (UniProt Q9HWS7)
# T7 sequence: T1 sequence with S209A
# [8] = target: T8, BfmR T227A T227A (Pseudomonas aeruginosa PAO1) (UniProt Q9HWS7)
# T8 sequence: T1 sequence with T227A
sequence,measurement,setting,value
CATCGGATTCCTGCGAATACTACTGATAACGATAATCTCTATCATTTACTCCATTTTTACATTTACATACACTTGCCCCGCCGCGAATTCCTACGCCGGTTTCCCACATAAACAAGAAACGC (double strand) [PfpvB],binding,[1],binds
same,binding,[2],binds more weakly
same,binding,[3],binds more weakly
same,binding,[4],binds more weakly
same,binding,[5],binds more weakly
same,binding,[6],binds more weakly
same,binding,[7],binds more weakly
same,binding,[8],binds more weakly
